Biological target: Leptospira interrogans triosephosphate isomerase (Leptospira interrogans)
Assay: SEC

**Q.** How did the stoichiometry N turn out when “Leptospira interrogans triosephosphate isomerase (enzyme)” was run?
**A.** Its stoichiometry N is 2.
